Measured values reported in US6841359 (GENERAL HOSPITAL, dated 2005).
Where no end group is shown, it is not given here. The star is where a group is joined. puromycin = COc1ccc(C[C@H](N*)C(=O)N[C@H]2[C@@H](O)[C@H](n3cnc4c(N(C)C)ncnc43)O[C@@H]2CO)cc1; DNA oligonucleotide = not defined here

Key:
streptavidin [1] = molecular target: T1, streptavidin (UniProt P22629 37-163, limits assumed); test: streptavidin column-binding assay, 35S DNA-tagged peptide on immobilized streptavidin, biotin elution
T1 construct: The same protein was used free (EMSA, Biacore, SBIA) and immobilized on a matrix or plate; also called immobilized streptavidin; Ultralink immobilized streptavidin plus
Method: (§1) The resulting purified DNA-tagged peptides (DTP) were analyzed in a streptavidin column-binding assay, in which ~500 pM ^35S-labeled DTP were mixed with 50 µL of the streptavidin matrix in streptavidin-binding buffer, in a total volume of 300 µL, and incubated for 10 minutes at room temperature with agitation. Then, the contents were loaded onto a chromatography column. The column was drained and washed with 80 column volumes of streptavidin-binding buffer, and then eluted with three consecutive aliquots (3 column volumes each) of streptavidin-binding buffer plus 2 mM biotin over a 15 minute period. All fractions (flow-through, washes, elutions, and irreversibly bound counts) were analyzed by scintillation counting to determine the fraction of DTP that bound streptavidin and eluted with biotin (Table 1).

streptavidin [2] = molecular target: T1, streptavidin; test: EMSA, DNA-tagged peptide with free streptavidin; SD 22, n=6
Method: (§2) The dissociation constants of the selected peptides for streptavidin were measuring using an electrophoretic mobility shift assay (EMSA). In this assay, DTP's were incubated with varying amounts of pure streptavidin (Pierce Immunopure Streptavidin, Rockford, Ill.) in streptavidin-binding buffer plus 5% glycerol to increase the density of the solution so that it could collect at the bottom of the gel well. After incubating at room temperature for 20 minutes, the reactions mixtures were moved into the cold room, where they remained for 10 minutes before being carefully loaded onto a 10% polyacrylamide:bisacrylamide (37.5:1, National Diagnostics, Atlanta, Ga.) gel (thickness 0.7 mm, height 16 cm, width 18 cm) containing 2×TBE, 0.1% Triton X-100 and 5% glycerol. The gel, which had been pre-run for 30 minutes at 13 watts, and the running buffer were pre-cooled to 4° C. Then, the gel was run in the cold room at 13 watts, which increased the temperature of the gel to about 20° C. The gel was run for 45 to 120 minutes, depending on the mobility of the particular DTP. Then, the gel was fixed in 10% acetic acid and 10% methanol for 15 minutes, transferred to electrophoresis paper (Ahlstrom, Mt. Holly Springs, Pa.), dried, and analyzed using a PhosphorImager (Molecular Dynamics, Sunnyvale, Calif.).

streptavidin [3] = molecular target: T1, streptavidin; test: streptavidin column-binding assay: 35S-labeled DNA-tagged peptide bound to immobilized streptavidin and eluted with biotin
Method: as §1

streptavidin [4] = molecular target: T1, streptavidin; test: EMSA, DNA-tagged peptide with free streptavidin; SD 5.7, n=4
Method: as §2

streptavidin [5] = molecular target: T1, streptavidin; test: streptavidin column-binding assay, M1 (HPQ to HGA) compared to C4
Method: as §1

streptavidin [6] = molecular target: T1, streptavidin; test: EMSA, DNA-tagged peptide with free streptavidin; SD 0.91, n=8
Method: as §2

T1 sequence (P22629 37-163 limits assumed): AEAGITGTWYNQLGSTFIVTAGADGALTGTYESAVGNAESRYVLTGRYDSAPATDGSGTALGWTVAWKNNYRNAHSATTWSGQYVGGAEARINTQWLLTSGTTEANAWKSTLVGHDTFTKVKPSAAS

| Binder | % binding and eluting (streptavidin [1]) [%] | % binding (streptavidin [3]) [%] | further results |
| --- | --- | --- | --- |
| SB5 (C-terminus joined through puromycin to a short DNA oligonucleotide (DNA-tagged peptide); 35S-methionine label, also called peptide SB5) peptide: MDEKTHWVNVYHPQGDLLVRGHGHDVEALHDQGLHQLDLLVGPPPEVVRALRGEVLGGLRRLVPLDHPQGEALDQARQRPQHLLELHHRALPPALVWRLPPS | 72 |  | Kd (streptavidin [2]): 110 nM |
| SB8 (C-terminus joined through puromycin to a short DNA oligonucleotide (DNA-tagged peptide); 35S-methionine label, also called peptide SB8) peptide: MDEKTHCTIELNFSFTHWKLHHHPQGDALLDDGVRPHHPLADEGGGLDQGLGHRRGVVAERLARRDPEVLEGLVERHRGLVPRLRHGGERHAEPLVWRLPPS | 27 |  |  |
| SB3 (C-terminus joined through puromycin to a short DNA oligonucleotide (DNA-tagged peptide); 35S-methionine label, also called peptide SB3) peptide: MTRRPTASSSSCVRHLLLRQGEHGHQALEDRDKARHVRLVEGDVEVLGGLDRLARARHEALHPQAGLVHLPLHGGDLGGHLRLVLEAHPQGDRLGLAVHHH | 20 |  |  |
| SB19 C-terminal truncation construct C2 (C-terminus joined through puromycin to a short DNA oligonucleotide (DNA-tagged peptide); 35S-methionine label) peptide: MDEKTTGWRGGHVVEGLAGELEQLRARLEHHPQGQREPLVQEVEDVDEGLVQDLHGVVAGLLDPVEMMSGGCKLG |  | 88 |  |
| MDEAHPQAGPVDQADARLVQQGALQHHPQGDRMMSGGCKLGTGY-{puromycin-DNA oligonucleotide} (reading uncertain; also: C-terminus joined through puromycin to a short DNA oligonucleotide (DNA-tagged peptide), 35S-methionine label, also called non-selected clone; control peptide) [Non-selected peptide with two HPQ motifs spaced by 19 residues] | 0.16 |  |  |
| SB1 (C-terminus joined through puromycin to a short DNA oligonucleotide (DNA-tagged peptide); 35S-methionine label, also called peptide SB1; clone SB1) peptide: MDEKTHCTISMNGAVPLVPHHHPQGDPLRLLHRPQPALLVRHPQGDLVALVEHHEGVDRGLVALPELHAEELGEPVGDLVQGPVEQVQGVVDALVWRLPPS | 86 |  | Kd (streptavidin [4]): 50 nM |
| SB19 C-terminal truncation construct C3 (reading uncertain; also: 35S-methionine label) peptide: MDEKTTGWRGGHVVEGLAGELEQLRARLEHHPQGQREPLVQEVEDVDEGLVQMMSGGCKLG-{puromycin-DNA oligonucleotide} |  | 89 |  |
| MDEKTTGWRGGHVVEGLAGELEQLRARLEHHGAGQREPMMSGGCKLG-{puromycin-DNA oligonucleotide} (reading uncertain; also: 35S-methionine label, also called construct M1) [SB19 point mutated peptide M1] |  | 0.065 | fold reduction of activity against construct C4 (streptavidin [5]): ~1000 fold |
| SB19 C-terminal truncation construct C1 (C-terminus joined through puromycin to a short DNA oligonucleotide (DNA-tagged peptide); 35S-methionine label) peptide: MDEKTTGWRGGHVVEGLAGELEQLRARLEHHPQGQREPLVQEVEDVDEGLVQDLHGVVAGLLDPVEKLLTDWFKKFKNVSMMSGGCKLG |  | 87 |  |
| SB2 (C-terminus joined through puromycin to a short DNA oligonucleotide (DNA-tagged peptide); 35S-methionine label, also called peptide SB2; clone SB2) peptide: MDEKTHCFHPGDHLVRLVEELQALAEGLQRQGGRQPHRLPRRRPHHLQLLLDEAHPQAGPLRERAHQVDGRLLLQHHPQGDRLLQQPQDHPLELVWRLPPS | 48 |  | Kd (streptavidin [6]): 4.8 nM |
| MDGHVVEGLAGELEQLRARLEHHPQGQREPMMSGGCKLG (One member of the group m27; Assayed as a DNA-tagged peptide) [N1] |  | 69 |  |
| SB4 (C-terminus joined through puromycin to a short DNA oligonucleotide (DNA-tagged peptide); 35S-methionine label, also called peptide SB4) peptide: MDEKTHWGISTWRGEPLLHHPQAGRLPLDRRRARHRRILGAEPGGVDHGLRLELLDDHRPLVPDHHPQRGPLQRGDLPQVVPLVRLRHAHVLGLGLAAATIT | 49 |  |  |
| SB7 (C-terminus joined through puromycin to a short DNA oligonucleotide (DNA-tagged peptide); 35S-methionine label, also called peptide SB7) peptide: MDEKTHWFGTLNSFPTHWMSAVGNGKIDCSFNMNLSLNHWLSSGHPDGALDDQLHPQGDALVGRDDGVVQALRLEGQHQHRRLAQRRADRHRQLVWRLPPS | 28 |  |  |
| SB6 (C-terminus joined through puromycin to a short DNA oligonucleotide (DNA-tagged peptide); 35S-methionine label, also called peptide SB6) peptide: MDEKTHWLNNFEELLARLDGLREGEDHPLVLRHHPQGDGLLDQPLGRHRALDGEVREGDRPLDQGGEEDLGALVDDDGEVLDGLVHVGVHVHDPLVCGCHHH | 49 |  |  |
| N2 (One member of the group m27; Assayed as a DNA-tagged peptide) peptide: MDEGLAGELEQLRARLEHHPQGQREPLVQEVEDVDEGLVQDLHGVVAGLLDPVEKLLTDWFKKFKNVSKDCKMTFYLEMYDWSGGCKLG |  | 30 |  |
